# Source: US8546535 (ESPERANCE PHARMACEUTICALS, dated 2013)
# Where “and” joins values, the source holds several entries; their conditions need not be identical. Equal values may be shown once.
# T1: luteinizing hormone-releasing hormone (LHRH) receptor (human, UniProt P30968 1-328)
# T1 sequence (looked up): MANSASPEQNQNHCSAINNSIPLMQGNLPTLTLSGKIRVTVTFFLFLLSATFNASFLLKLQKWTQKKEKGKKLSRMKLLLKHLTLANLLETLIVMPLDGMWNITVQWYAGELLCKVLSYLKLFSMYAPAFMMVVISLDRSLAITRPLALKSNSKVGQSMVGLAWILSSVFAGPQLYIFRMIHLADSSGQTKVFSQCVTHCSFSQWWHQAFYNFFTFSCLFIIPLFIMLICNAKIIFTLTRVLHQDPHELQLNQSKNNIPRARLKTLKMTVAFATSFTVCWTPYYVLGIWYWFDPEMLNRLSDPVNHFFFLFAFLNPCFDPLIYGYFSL
# Experiments:
# [1] = molecular target: luteinizing hormone-releasing hormone (LHRH) receptor (human) (UniProt P30968); assay: cell-based or functional assay
# [2] = molecular target: T1, luteinizing hormone-releasing hormone …; assay: cell-based or functional assay
Molecule,"IC50, cytotoxicity in TM4 cells (no LHRH receptors; receptor-negative control) [1]","IC50, cytotoxicity (MTT) in MCF-7 cells [2]","IC50, cytotoxicity (MTT) in MDA-MB-435S cells, 0.5 hour incubation [2]","IC50, cytotoxicity (MTT) in MDA-MB-435S cells, 1 hour incubation [2]","IC50, cytotoxicity (MTT) in OVCAR-3 cells, increasing incubation time (1st of 7 values) [2]","IC50, cytotoxicity (MTT) in OVCAR-3 cells, increasing incubation time (2nd of 7 values) [2]","IC50, cytotoxicity (MTT) in OVCAR-3 cells, increasing incubation time (3rd of 7 values) [2]","IC50, cytotoxicity (MTT) in OVCAR-3 cells, increasing incubation time (4th of 7 values) [2]","IC50, cytotoxicity (MTT) in OVCAR-3 cells, increasing incubation time (5th of 7 values) [2]","IC50, cytotoxicity (MTT) in OVCAR-3 cells, increasing incubation time (6th of 7 values) [2]","IC50, cytotoxicity (MTT) in OVCAR-3 cells, increasing incubation time (7th of 7 values) [2]","IC50, cytotoxicity (MTT) in SKOV-3 cells, 24 hours incubation (cells without functional LHRH receptors; receptor-negative control) [2]"
LHRH-Phor21 (peptide),10900 nM,,,,,,,,,,,
KFAKFAKKFAKFAKKFAKQHWSYGLRPG [Phor18-LHRH (338613)],,3400 nM and 1800 nM,1200 nM,600 nM,6700 nM,5600 nM,5300 nM,1600 nM,1500 nM,500 nM,500 nM,11500 nM
